In patent EP3080145B1:
Values belong to the molecule of their own block, whether it stands above or below them.

Key:
[1] = molecular target: HFBI variant D40Q/D43N (Trichoderma reesei) (UniProt P52754); assay: QCM-D, enzyme injected over adsorbed D40Q/D43N layer, pH series
[2] = molecular target: HFBI variant D40Q/D43N (Trichoderma reesei) (UniProt P52754); assay: QCM-D, enzyme injected over adsorbed D40Q/D43N layer, around pH 5

Sequence of UniProt P52754 (P52754 23-97 D62Q/D65N, form in doubt): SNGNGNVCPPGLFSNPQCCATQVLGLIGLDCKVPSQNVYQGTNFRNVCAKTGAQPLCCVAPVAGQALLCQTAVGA

- adsorbed mass [1]: 55 to 100 ng/cm^2
Molecule: Trichoderma reesei xylanase II (from UniProt P36217 34-223) (enzyme)

- maximum adsorption (adsorbed mass) [2]: 600 ng/cm^2
B1: Trichoderma reesei cellobiohydrolase I (enzyme, UniProt P62694 18-513, looked up)
chain: QSACTLQSETHPPLTWQKCSSGGTCTQQTGSVVIDANWRWTHATNSSTNCYDGNTWSSTLCPDNETCAKNCCLDGAAYASTYGVTTSGNSLSIGFVTQSAQKNVGARLYLMASDTTYQEFTLLGNEFSFDVDVSQLPCGLNGALYFVSMDADGGVSKYPTNTAGAKYGTGYCDSQCPRDLKFINGQANVEGWEPSSNNANTGIGGHGSCCSEMDIWEANSISEALTPHPCTTVGQEICEGDGCGGTYSDNRYGGTCDPDGCDWNPYRLGNTSFYGPGSSFTLDTTKKLTVVTQFETSGAINRYYVQNGVTFQQPNAELGSYSGNELNDDYCTAEEAEFGGSSFSDKGGLTQFKKATSGGMVLVMSLWDDYYANMLWLDSTYPTNETSSTPGAVRGSCSTSSGVPAQVESQSPNAKVTFSNIKFGPIGSTGNPSGGNPPGGNRGTTTTRRPATTTGSSPGPTQSHYGQCGGIGYSGPTVCASGTTCQVLNPYYSQCL
